Measured values taken from US20260265360A1, “USE OF ANTI-FAM19A5 ANTAGONISTS FOR TREATING HEARING DISORDERS” (NEURACLE SCIENCE CO., LTD., priority 2023, published 2026).

Key:
[1] = tested on: noise-induced hearing loss mouse model; assay: Noise-induced hearing loss mouse model, first antibody dose 2 hours post noise exposure; type: in vivo; settings: first dose 2 hours post noise
Procedure: FIGS. 13A, 13B, 13C, 13D, and 13E show the therapeutic effect of FAM19A5 antagonists (administered 2 hours after noise induction) on auditory brainstem response (ABR) threshold in a noise-induced hearing loss mouse model. The overall design was similar as that provided in FIG. 6A, except that the antibodies were administered to the animals at 2 hours post noise induction. FIG. 13A provides the results before noise exposure. FIG. 13B provides the results at one day post noise exposure. FIG. 13C provides the results at two weeks post noise exposure. FIG. 13D provides the results at four weeks post noise exposure. FIG. 13E provides the results at eight weeks post noise exposure. ABR threshold was measured at a frequency ranging from 4 kHz to 64 kHz.
FIGS. 14A and 14B show the effect of FAM19A5 antagonists on ABR I/O function in a noise-induced hearing loss mouse model. FIG. 14A provides comparisons of wave I amplitude (1st graph) and wave IV amplitude (2nd graph) in animals treated with the anti-FAM19A5 antibody (square), before noise group (triangle) or control IgG antibody (circle) 2 weeks after noise exposure. FIG. 14B provides comparisons of wave I amplitude (1st graph) and wave IV amplitude (2nd graph) in animals treated with the anti-FAM19A5 antibody (square), before noise group (triangle) or control IgG antibody (circle) 4 weeks after noise exposure. Tone bursts were measured across 0 and 90 dB.
Next, to assess whether the timing of the anti-FAM19A5 antibody administration has an effect, the above-described noise-induced hearing loss mouse model was used again. Again, to induce hearing loss, the animals were exposed to a temporary threshold shift (TTS) of 105 decibels for 30 minutes. An anti-FAM19A5 antibody (1-30 antibody) or a control human IgG antibody was intravenously administered to the animals once weekly for 5 total administration (30 mg/kg per dose). […] Hearing loss was assessed (e.g., by measuring ABR threshold, DPOAE threshold, and/or DPOAE amplitude) in the animals prior to the noise exposure and then again at one day, two weeks, and four weeks post noise exposure.

[2] = tested on: inner hair cells of mouse cochlear explants; assay: Promotion of synaptogenesis (CtBP2 puncta); type: cell-based; settings: antibody 1 μM
Procedure: Cochlear explant were cultured in medium consisting of plating media, which consist of Neurobasal media (Invitrogen), 1% N2 supplement, and 10 μg/mL Ampicillin with culture media with additional 1% FBS.
Postnatal day 4-5 (P4-5) C57BL/6 mice were sacrificed for inner ear dissection. Mouse head was bisected, and brain tissue was removed. Cochlea was carefully separated the from the extraneous bones in ice-cold HBSS (5 mM HEPES/1.3 mM CaCl2), 0.9 mM MgCl2, pH 7.4) or External solution (1.2 mM CaCl2), 1 mM MgCl2, 5 mM HEPES in HBSS). Then the stria vascularis and spiral bone plate was removed, and cochlea was cut into two to three sections. […]
Mouse cochlear explant cultures were treated with FAM19A5, FAM19A5 combined with a FAM19A5 antagonist (e.g., described herein, e.g., 1-30 antibody), or a FAM19A5 antagonist (e.g., described herein, e.g., 1-30 antibody) alone at 1 DIV to determine the level of synaptogenesis at 2 DIV by immunostaining CtBP2, a ribbon synapse marker. To quantify the number of CtBP2 puncta of individual inner hair cells, z-stack confocal images were exported in “multi-page” and the number of CtBP2 puncta from each individual inner hair cells were measured using ROI manger and multi-point tool from Fiji (Image J). Number of CtBP2 puncta from five individual inner hair cells were counted per image and 3 z-stack images were measured from each treatment group. […]

[3] = 2 and 4 weeks after noise, particularly at higher tone-burst levels

B1: 1-30: anti-FAM19A5 antibody, de-immunized variant of 3-2; VH SEQ ID NO: 235, VL SEQ ID NO: 240 (antibody, V domains shown)
VH: AVTLDESGGGLQTPGGALRLSCKASGFDFESFNMFWVRQAPGKGLEYVSQISSSEEDENYAPAVKGRATISRDNGQSTLYLQMNSLRAEDTGTYYCAKSSYDCPYGHCSSGVDSAGEIDAWGHGTEVIVSS
VL: ALTQPSSVSANPGETVKITCSGGGSEEEQYYYGWYQQKPGSAPVTLIYQDEERPSDIPSRFSGSTSGSTATLTITGVQAGDEADYYCGSWDSEDEDHFGAGTTLTVL
modifications: Low-PI VH, 1-30 VH, 1-17 VH, 1-32 VH, 4-11 VH, 6-10 VH; 1-30 VL
ABR threshold vs control antibody ([1]; 30 mg/kg i.v. weekly x5): did not appear to be any significant differences | Wave I amplitude vs control antibody [1, 3]: noticeable differences were observed | Wave IV amplitude vs control antibody [1, 3]: noticeable differences were observed | number of CtBP2 puncta within the inner hair cells vs control human IgG [2]: significant increase
